In patent publication US20180215801A1:
pKd: −log10 of the molar value.

Target: Activin B (UniProt P09529)
Assay: SPR (Biacore 2000), Fc fusion captured on anti-human Fc chip, ligand injected, 1:1 Langmuir fit

Chain of Activin B (P09529 293-407 limits assumed): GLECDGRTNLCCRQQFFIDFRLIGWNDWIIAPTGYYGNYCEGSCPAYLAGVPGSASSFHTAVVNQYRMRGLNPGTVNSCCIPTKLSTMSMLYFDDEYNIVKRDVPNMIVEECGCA

pKd: 9.10
koff: 0.00042 s⁻¹
kon: 510000 M⁻¹ s⁻¹
Substance: BMPRII-Fc (BMPRII (1-120) fused to hIgG1-Fc) (from UniProt Q13873 27-120) (Fc fusion)
